Data as given in article PMC3700227.

Biological target: Cladosporium fulvum LysM effector Ecp6 (extracellular protein 6), produced in Pichia pastoris (Cladosporium fulvum) (UniProt B3VBK9)
Experiment: SEC

Substance: Cladosporium fulvum LysM effector Ecp6 (extracellular protein 6), produced in Pichia pastoris (from UniProt B3VBK9) (natural protein)
- stoichiometry N: 2
